The test system of one series is TNBS treated rats. As to the kind of experiment: Rat TNBS colitis visceral pain model, balloon distension of the colon. The series is classed as in vivo. To be noted: intravenous, FIG. 1A and 1B. On the procedure: Colorectal distension after TNBS-induced colitis in rats is an animal model that has been used by many researchers to explore the mechanisms of visceral hypersensitivity (Gay et al, 2006, Delafoy et al, 2006, Adam et al., 2006). In this Example, the rat TNBS colitis model was used to test the effect of a function-blocking antibody for CGRP. In the model, as in the human IBS studies, the visceral pain threshold is measured by response to balloon distension of the colon.
After overnight fasting, rats were anesthetized with ketamine (80 mg/ml)/xylazine (12 mg/ml) at a dosage of 1 ml/kg. An abdominal laparotomy was performed and a TNBS solution (50 mg at 1.5 ml/kg in 30% ethanol, “TNBS treatment group”) or 30% ethanol solution (“sham group”) was injected into the proximal colon 1 cm distal from ceacum. The sham group was used as a non-colitis control. […]
The seventh day following surgery, after a second overnight fast, TNBS treated rats sustaining a weight loss of no greater than 11% were tested for visceral pain threshold with balloon distension. […] Balloon distension was halted at the threshold pressure required to elicit a stereotypical rodent visceral pain posture known as the alpha position (repeated waves of contraction of oblique musculature with inward turning of the hindpaw) and this was recorded as the visceral pain threshold.

The conditions of series [1]: cited from earlier work.
Series [2] concerns visceral hypersensitivity (VH). To be noted: systemically injected; Delafoy 2006, Plourde 1997, Julia and Bueno 1997; cited from earlier work.
For a further series, the target named is T1, α-rat CGRP (Rattus norvegicus, UniProt P01256).
T1 sequence (P01256 83-119 limits assumed): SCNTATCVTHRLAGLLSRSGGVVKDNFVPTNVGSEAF
To be noted: Table 6 reproduced from WO2007/054809; cited from earlier work.

Series [3] addresses T2, human α-CGRP (Homo sapiens, UniProt P06881).
T2 sequence (P06881 83-119 limits assumed): T1 sequence (P01256 83-119 limits assumed) with S1A, N3D, D25N, E35K
To be noted: Table 6 reproduced from WO2007/054809; cited from earlier work.

For series [4], the target named is T2, human α-CGRP. In words: Biacore interaction analysis of Fab fragments, N-biotin α-human/cyno CGRP on chip. The series is classed as binding. The procedure:
(§1) Interaction analysis was conducted at 25° C. and at 37° C. on a Biacore 3000™ system equipped with streptavidin-coated (SA) sensor chips (Biacore AB, Uppsala, Sweden) using standard Biacore running buffers (HBS-P or HBS-EP). N-LC-biotinylated human and rat α- and β-CGRPs were captured on individual flow cells at low levels (typically 100 response units) to provide the reaction surfaces, while an unmodified flow cell served as a reference channel. Purified Fab fragments of antibodies G1 and G2 were generated. Typically, Fabs were prepared as a two-fold serial dilution using 0.5 μM as the top concentration and injected for 1-min at 100 μl/min allowing up to two hours for the dissociation time. Surfaces were regenerated with a mixture of 50% v/v ethanol+25 mM NaOH for G1 Fab and 2:1 v/v Pierce Gentle Elution Buffer/4M NaCl for G2 Fab. […] The binding responses were double-referenced and fit globally to a simple model using BiaEvaluation v. 4.0 software. Affinities were deduced from the quotient of the kinetic rate constants (KD=koff/kon).
(§2) As such, the offrate (koff) cannot be measured accurately unless the dissociation phase is monitored for a very long time. As a general rule-of-thumb, the binding response decays at least 5% over the allowed dissociation time for the report of an accurate offrate. However, monitoring long dissociation times on the Biacore is hindered by baseline drift, which is particularly challenging when working at the low surface capacities required for kinetic analyses. In this study, the dissociation phase was followed for two hours over the α-CGRPs but only 20 mins over the β-CGRPs. As a result, the offrates for β-CGRPs cannot be resolved as accurately as those for α-CGRPs.
Background: SPR reads the build-up and loss of mass on a sensor chip optically.

A further series has as its target T3, human β-CGRP (Homo sapiens, UniProt P10092).
T3 construct: and
T3 sequence (P10092 82-118 limits assumed): T1 sequence (P01256 83-119 limits assumed) with S1A, V22M, D25S, E35K
As to the kind of experiment: Biacore interaction analysis of Fab fragments, N-biotin β-human/cyno CGRP on chip. The series is classed as binding. To be noted: β-human CGRP, 25° C. On the procedure: as §1, §2

The next series has as its target T4, rat α-CGRP (Rattus norvegicus, UniProt P01256).
T4 sequence (P01256 83-119 limits assumed): T1 sequence (P01256 83-119 limits assumed)
In words: Biacore interaction analysis of Fab fragments, N-biotin α-rat CGRP on chip. The format is binding. On the procedure: as §1, §2

Another series deals with T5, rat β-CGRP (Rattus norvegicus, UniProt P10093, R105S).
T5 sequence (P10093 89-125 R105S limits assumed): T1 sequence (P01256 83-119 limits assumed) with E35K
In words: Biacore interaction analysis of Fab fragments, N-biotin β-rat CGRP on chip. The format is binding. To be noted: reverse orientation assay format (data not shown). On the procedure: as §1, §2
The results for antibody G2 are expressed in Table 2.

Changes are numbered by the printed parent chain. Names and notes keep the numbering of the source. Read-outs that look alike come from different tables or passages of the source.

As for CGRP 8-37: a CGRP receptor antagonist, the “effect on visceral pain threshold, 4901 compared with CGRP 8-37” value in the series with TNBS treated rats is on record as “comparable”. For the same molecule, the half-life in-vivo entry in series [1] is “very short half-life in-vivo”. Further, the “reversing visceral hypersensitivity (VH)” value in series [2] is “effective in reversing visceral hypersensitivity (VH)”.

B1: M78: G1 variant: L1 R28N T30S; L2 G50A L56T; H2 E54K A57N S58T; HC-FW3 L99T A100V (antibody, chains of the INN, looked up, variant L:R28N L:T30S L:G50A L:L56T H:E54K H:A57N H:S58T H:L99T H:A100V, V domains shown)
VH: EVQLVESGGGLVQPGGSLRLSCAASGFTFSNYWISWVRQAPGKGLEWVAEIRSKSDNTATHYAEAVKGRFTISRDNAKNSLYLQMNSLRAEDTAVYYCTVYFDYGLAIQNYWGQGTLVTVSS
VL: EIVLTQSPATLSLSPGERATLSCKASKNVSTYVSWYQQKPGQAPRLLIYAASNRYTGIPARFSGSGSGTDFTLTISSLEPEDFAVYYCSQSYNYPYTFGQGTKLEIK
One may read the Kd as a measure of binding affinity in units of concentration. For the molecule B1, the results for the Kd in the series with α-rat CGRP and with human α-CGRP [3] were 9280 nM and 8.19 nM, respectively.

B2: M31: G1 variant: L1 R28N T30G; H2 E54K A57G; HC-FW3 L99T A100V (antibody, chains of the INN, looked up, variant L:R28N L:T30G H:E54K H:A57G H:L99T H:A100V, V domains shown)
VH: B1 VH with N57G, T58S
VL: B1 VL with S30G, A50G, T56L
For the molecule B2, the figures for the Kd in the series with α-rat CGRP and in the series with human α-CGRP [3] were 201 nM and 2.17 nM, respectively.

B3: M84: G1 variant: L1 R28N T30V; L2 A51H L56T; H2 E54N A57N; HC-FW3 L99T A100V (antibody, chains of the INN, looked up, variant L:R28N L:T30V L:A51H L:L56T H:E54N H:A57N H:L99T H:A100V, V domains shown)
VH: B1 VH with K54N, T58S
VL: B1 VL with S30V, A50G, A51H
On to B3, for which the Kd in the series with α-rat CGRP is 978 nM; with human α-CGRP [3], 6.75 nM.

B4: M37: G1 variant: L1 R28N T30S; H2 A57G; HC-FW3 L99T A100V (antibody, chains of the INN, looked up, variant L:R28N L:T30S H:A57G H:L99T H:A100V, V domains shown)
VH: B1 VH with K54E, N57G, T58S
VL: B1 VL with A50G, T56L
Turning to B4, the results for the Kd with α-rat CGRP and with human α-CGRP [3] were 80.6 nM and 1.41 nM, respectively.

B5: M38: G1 variant: L1 R28N T30W; HC-FW3 L99T A100V (antibody, chains of the INN, looked up, variant L:R28N L:T30W H:L99T H:A100V, V domains shown)
VH: B1 VH with K54E, N57A, T58S
VL: B1 VL with S30W, A50G, T56L
On to B5, for which the Kd in the series with α-rat CGRP is 284 nM; with human α-CGRP [3], 1.36 nM.

B6: M28: G1 variant: L1 R28N T30D; H2 E54R A57N; HC-FW3 L99T A100V (antibody, chains of the INN, looked up, variant L:R28N L:T30D H:E54R H:A57N H:L99T H:A100V, V domains shown)
VH: B1 VH with K54R, T58S
VL: B1 VL with S30D, A50G, T56L
For B6, the Kd in the series with α-rat CGRP is 69.4 nM; with human α-CGRP [3], 0.62 nM.

B7: M26: G1 variant: L1 R28N; H2 A57G; HC-FW3 L99T A100V (antibody, chains of the INN, looked up, variant L:R28N H:A57G H:L99T H:A100V, V domains shown)
VH: B1 VH with K54E, N57G, T58S
VL: B1 VL with S30T, A50G, T56L
Turning to B7, the Kd was 51.3 nM in the series with α-rat CGRP and 0.93 nM with human α-CGRP [3].

B8: M24: G1 variant: L1 R28L; HC-FW3 L99T A100V (antibody, chains of the INN, looked up, variant L:R28L H:L99T H:A100V, V domains shown)
VH: B1 VH with K54E, N57A, T58S
VL: B1 VL with N28L, S30T, A50G, T56L
For the molecule B8, the Kd in the series with α-rat CGRP was 57.8 nM; in the series with human α-CGRP [3], 0.93 nM.

B9: M23: G1 variant: L1 R28G; HC-FW3 L99T A100V (antibody, chains of the INN, looked up, variant L:R28G H:L99T H:A100V, V domains shown)
VH: B1 VH with K54E, N57A, T58S
VL: B1 VL with N28G, S30T, A50G, T56L
In the case of B9, the Kd with α-rat CGRP was 44.4 nM; in the series with human α-CGRP [3], 0.81 nM.

B10: M27: G1 variant: L1 R28N T30A; HC-FW3 L99T A100V (antibody, chains of the INN, looked up, variant L:R28N L:T30A H:L99T H:A100V, V domains shown)
VH: B1 VH with K54E, N57A, T58S
VL: B1 VL with S30A, A50G, T56L
Turning to B10, the values for the dissociation constant Kd with α-rat CGRP and with human α-CGRP [3] were 189 nM and 2.23 nM, respectively.

B11: G2: anti-rat CGRP mouse monoclonal antibody as described in Wong H C et al. Hybridoma 12:93-106, 1993; VH SEQ ID NO: 19, VL SEQ ID NO: 20 (antibody, V domains shown)
VH: EVQLQQSGPELVKPGASVKMSCKASGYTFTSSVMHWVKQKPGQGLEWIGYINPYNDGTKYNEKFKGKATLTSDKSSSTAYMELSSLTSEDSAVYYCAKGGNDGYWGQGTTLTVSS
VL: EIVLTQSPTTMAASPGEKITITCSASSSISSIYLHWYQQKPGFSPKVLIYRASNLASGVPARFSGSGSGTSYSLTIGTMEAEDVATYYCQQGSTIPFTFGSGTKLEIK
modifications: Synthetic polypeptide, Antibody G2 heavy chain variable region; Synthetic polypeptide, Antibody G2 light chain variable region
The term koff denotes the rate constant with which the complex falls apart. A lower koff goes with slow dissociation. By kon is commonly meant the rate constant with which the complex forms. The low end stands for slow association, the high end for fast association. Consider B11, for which the Kd with human α-CGRP [4] (25° C.) amounted to 19 nM; with human β-CGRP, 20 nM. For the same molecule, the “koff” value with human α-CGRP [4] (25° C.) amounted to 0.00115 s⁻¹; in the series with human α-CGRP [4] (37° C.) it was 0.0039 s⁻¹; with human β-CGRP, 0.00162 s⁻¹; with rat α-CGRP (25° C.) it was 0.000214 s⁻¹; with rat α-CGRP (37° C.), 0.0017 s⁻¹. In addition, the “kon” value amounted to 60300 M⁻¹ s⁻¹ in the series with human α-CGRP [4] (25° C.); 93000 M⁻¹ s⁻¹ with human α-CGRP [4] (37° C.); 81400 M⁻¹ s⁻¹ with human β-CGRP; 231000 M⁻¹ s⁻¹ in the series with rat α-CGRP (25° C.); 500000 M⁻¹ s⁻¹ with rat α-CGRP (37° C.). Besides, the “binding characteristics to β-rat CGRP” value with rat β-CGRP is “comparable binding characteristics to α- and β-human CGRPs”.

Source of the values: US8623366B2, “Methods for treating visceral pain by administering antagonist antibodies directed against calcitonin gene-related peptide” (Labrys Biologics, Inc., priority 2009, dated 2014).
